Results reported in patent publication US8357515.

Test system: LAP-MMP IL-4

Sequence of MMP-1, recombinant (P03956 100-469): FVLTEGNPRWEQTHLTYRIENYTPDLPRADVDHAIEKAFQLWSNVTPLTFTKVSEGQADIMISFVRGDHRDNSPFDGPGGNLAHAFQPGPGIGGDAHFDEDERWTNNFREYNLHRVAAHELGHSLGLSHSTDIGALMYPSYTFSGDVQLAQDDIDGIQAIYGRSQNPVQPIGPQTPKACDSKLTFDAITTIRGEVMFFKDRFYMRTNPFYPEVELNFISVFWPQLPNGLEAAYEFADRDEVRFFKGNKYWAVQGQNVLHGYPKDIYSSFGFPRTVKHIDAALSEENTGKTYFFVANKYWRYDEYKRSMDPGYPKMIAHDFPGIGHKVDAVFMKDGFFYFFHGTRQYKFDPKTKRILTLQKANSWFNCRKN

MMP-1, recombinant was tested, and the “cleavage of the fusion protein in 293T supernatant after overnight incubation at 37 C, Western blot probed with anti-IL-4 antibody” value was “LAP-MMP IL-4 is only cleaved by MMP-1”.
